Experimental findings from publication PMC8018021 (Proceedings of the National Academy of Sciences of the …, 2021) are described below.

The target in data set [1] is T1, PGAM–PirC complex (Synechocystis sp. PCC 6803, UniProt P74507).
T1 sequence (P74507 1-532): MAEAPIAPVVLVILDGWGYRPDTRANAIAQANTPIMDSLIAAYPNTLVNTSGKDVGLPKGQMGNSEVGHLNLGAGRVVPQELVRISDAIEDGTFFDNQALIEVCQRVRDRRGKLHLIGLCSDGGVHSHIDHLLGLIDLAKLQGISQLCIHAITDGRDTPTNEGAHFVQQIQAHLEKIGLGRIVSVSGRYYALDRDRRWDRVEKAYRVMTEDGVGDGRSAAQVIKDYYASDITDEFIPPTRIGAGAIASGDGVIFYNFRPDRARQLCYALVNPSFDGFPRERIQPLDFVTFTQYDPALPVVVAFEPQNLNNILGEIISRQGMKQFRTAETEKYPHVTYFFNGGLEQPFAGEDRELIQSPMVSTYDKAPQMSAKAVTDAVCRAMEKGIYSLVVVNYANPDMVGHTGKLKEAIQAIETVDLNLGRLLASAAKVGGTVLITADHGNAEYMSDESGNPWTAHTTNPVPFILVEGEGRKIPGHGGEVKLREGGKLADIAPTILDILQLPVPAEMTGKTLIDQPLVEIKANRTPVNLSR
T1 sequence (P77971 53-164 partner): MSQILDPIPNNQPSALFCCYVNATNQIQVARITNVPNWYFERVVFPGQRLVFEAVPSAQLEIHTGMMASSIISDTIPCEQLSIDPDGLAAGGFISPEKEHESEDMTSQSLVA
In words: bio-layer interferometry, inhibition of PirC–PGAM binding. Background: In BLI a coated tip is dipped into the sample, and binding shifts an interference pattern.

Data set [2] addresses T2, PII–PirC complex (Synechocystis sp. PCC 6803, UniProt Q55247). In words: bio-layer interferometry, enhancement of PirC–PII binding. Particulars: effector promotes PII–PirC complex.
Data set [3] deals with T2, PII–PirC complex. The experiment in a line: bio-layer interferometry, inhibition of PirC–PII binding.
Substrate in data set [4]: O=C(O)[C@H](O)COP(=O)(O)O
In words: purified protein. The data set is classed as biochemical, Synechocystis sp. PCC 6803. The following applies: no PirC, pH 8.0, 30 °C, 5 mM MgSO4, 0.4 mM MnCl2, 100 mM KCl.

In data set [5] the target is T3, PII signalling protein, C-terminal His8-tagged (Synechocystis sp. PCC 6803, UniProt Q55247 1-112). The experiment in a line: BLI.
T3 sequence (Q55247 whole entry): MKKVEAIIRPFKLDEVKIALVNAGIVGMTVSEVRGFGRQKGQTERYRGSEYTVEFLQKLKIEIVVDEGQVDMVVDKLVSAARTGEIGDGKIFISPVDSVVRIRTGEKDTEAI
The target of data set [6] is T3, PII signalling protein, C-terminal …. In words: SPR.

Values joined by “and” are separate entries in the source; they are usually repeats but may differ in a detail not shown here. Equal values may be shown once.

T2 sequence (Q55247 whole entry, one chain of several): as the sequence (Q55247 whole entry) above

On to `O=C(O)[C@@H](CO)OP(=O)(O)O` [2-PGA], for which, in data set [1], the 50% inhibitory concentration (IC50) (commonly the concentration needed to halve the response being measured) worked out at 970 ± 1 µM. Take `Nc1ncnc2c1ncn2[C@@H]1O[C@H](COP(=O)(O)OP(=O)(O)O)[C@@H](O)[C@H]1O` [ADP]: the “bio-layer interferometry, enhancement of PirC-PII binding” value in data set [2] (2 mM ADP) is recorded as “In the presence of ATP or ADP, PirC binding to PII strongly increased”. For the molecule `O=C(O)CCC(=O)C(=O)O` [2-OG], in data set [3], the concentration for half-maximal inhibition (IC50) was 123.4 ± 1.1 µM. In data set [1], `O=C(O)[C@H](O)COP(=O)(O)O` [3-PGA] registered an IC50 of 2400 ± 1 µM. For `Nc1ncnc2c1ncn2[C@@H]1O[C@H](COP(=O)(O)OP(=O)(O)OP(=O)(O)O)[C@@H](O)[C@H]1O` [ATP], the “bio-layer interferometry, enhancement of PirC-PII binding” value in data set [2] (2 mM ATP) is on record as “In the presence of ATP or ADP, PirC binding to PII strongly increased”.

B1: PGAM (Synechocystis sp. PCC 6803 substr. Kazusa) (protein)
chain: T1 sequence (P74507 1-532)
As to B1, in data set [4], the Km (as a rule, the concentration of substrate that gives half-maximal velocity) came out at 126.6 ± 6.4 µM; the maximum rate (Vmax) (commonly the top rate of the reaction or transport when substrate is in excess) was 2.85 µmol/min/mg; the turnover number (kcat) – broadly, the maximal rate divided by the concentration of active sites – was 2.78 ± 0.03 s⁻¹; the kcat/Km (in general, the turnover number divided by the Michaelis constant) turned out to be 22000 M⁻¹ s⁻¹.

B2: PirC (PII-interacting regulator of carbon metabolism; product of sll0944), short 112-amino-acid variant, strep-tagged (natural protein)
chain: T1 sequence (P77971 53-164 partner)
In the case of B2, in data set [5], the dissociation constant (Kd) (as a rule, the concentration at which binding is half-saturated) is 0.0373 µM and 0.0141 µM. Further, the “stoichiometry N” value in data set [6] is ~1 PirC monomer per PII trimer.
